{"source": "paper PMC2527485", "about": "(Journal of molecular biology, 2008)", "molecular_target": "the molecule itself", "assay": "SEC + crystal structure"}
{"protein": "E,Z-farnesyl diphosphate synthase (Rv1086) (enzyme) MEIIPPRLKEPLYRLYELRLRQGLAASKSDLPRHIAVLCDGNRRWARSAGYDDVSYGYRMGAAKIAEMLRWCHEAGIELATVYLLSTENLQRDPDELAALIEIITDVVEEICAPANHWSVRTVGDLGLIGEEPARRLRGAVESTPEVASFHVNVAVGYGGRREIVDAVRALLSKELANGATAEELVDAVTVEGISENLYTSGQPDPDLVIRTSGEQRLSGFLLWQSAYSEMWFTEAHWPAFRHVDFLRALRDYSARHRSYGR", "values": [{"measurement": "stoichiometry N", "result": 2}]}
